Source: the DeepSol protein solubility set

Assay: soluble on expression in E. coli; label from the status in PepcDB or PDB records

Sequence | soluble on expression in E. coli
MNYKLTLHPGSNPVEEFTSIPHGVTSLDLSLNNLYSISTVELIQAFANTPASVTSLNLSGNSLGFKNSDELVQILAAIPANVTSLNLSGNFLSYKSSDELVKTLAAIPFTITVLDLGWNDFSSKSSSEFKQAFSNLPASITSLNLRGNDLGIKSSDELIQILAAIPANVNSLNLRGNNLASKNCAELAKFLASIPASVTSLDLSANLLGLKSYAELAYIFSSIPNHVVSLNLCLNCLHGPSLENLKLLKDSLKHLQTVYLDYDIVKNMSKEQCKALGAAFPNIQKIILVDKNGKEIHPSHSIPISNLIRELSGKADVPSLLNQCLIFAQKHQTNIEDLNIPDELRESIQTCKPLLEHHHHHH | soluble
MSLNKQDGENTLQHEKSSSFGYWCSPSPEQLERLSLKQLAAVSNFVIGRRGYGCITFQHDVDLTAFTKSFREELFGKIVIFRSSKTVEVYPDEATKPMIGHGLNVPAIITLENVYPVDKKTKKPMKDTTKFAEFQVFDRKLRSMREMNYISYNPFGGTWTFKVNHFEGHHHHHH | soluble
MNSAPKLNTFQHLIGEHQTFLEAKRIAKQFSLSELPVLITGKIGTGKNHFAHAIHLESSRSNEPFISVNCSTHSEETLIHELFGPNGNTGVFQKAVRGTLFLDDVWRMPASVQAQLLKALDSDTEKPRMICASADRSVEHTFRQDLFYRLNILTLTLPELSERKSDIPLLTQHFLSNSGQQLLIDPSVFPVLEKHAFEGNVRELKNAADYMAAVSSGGTIQPYDLPPYIRGTIDGKTSKKKAKLLTLMEKAEFLFILETIKVLNEKGEPASRRIISEHSKNTQTSLTPQQVRSRLDYLEKKDYVTKSRGRAGTKITFEGLSFIETLKNQMILEHHHHHH | soluble
MGSDKIHHHHHHMGNAAASTRAICHRRCSTYPRMNDFQSLSTEESPAPAGTNPAVNPIARIHGEPVTEIPSDLYIPPDALEVFLDTFQGPLDLLLYLIRKHNLDVLDIAMAELTRQYLAYIEMMRANKLELAAEYLLMAAVLIEIKSRMLLPKPVAKGNEDEVDPRAELVRRLLEYEQMKVAGQKLNKLPQAERDFALTNVWIEQKVIERLPEVNADDLRNAWLILMARLNVNRRHNITREELSVREHMTRILRHVQGHHFVEFSDLFNAAAGAAELVVTFLALLELVKERQVEVSQPSAFGMIYVRPISVLTTV | not soluble
MSLKPAPRWPLHPAPREGEALSSWLNRVALCYHMEVSELLEHDLGHAQVDDLDTAPPLALLAMLSQRSGIEPDRLRCMSFAGWVPWLLDSLDDQIPDALETYAFQLSVLLPKLRRRTRSITSWRAWLPSQPIHRACPLCLNDPANQAVLLAWKLPLMLSCPLHGCWLESYWGVPGCQRRSNTDPWRRGEGHHHHHH | not soluble
MDIKHEMIYREDDVLLVKSEPQLHSPCATGSNGLPAGAGSNLLCASNGLVTTLASGSSLNGLTNNVPSNGLSSSGPFSSIGGGVSASKRQRTDDWLSSPSGNVPPLTPSPGPPSHPYTVISNGYSSPMSSGSYDPYSPNGKIGREDLSPSSLNGYSADSCDSKKKKGPTPRQQEELCLVCGDRASGYHYNALTCEGCKGFFRRSITKNAVYQCKYGNNCEIDMYMRRKCQECRLKKCLSVGMRPECVVPEVQCAVKRKEKKAQKEKDKPNSSTNGSPDVIKVEPELSDSEKTLCNGSKGISPEQEELIHRLVYFQNEYEHPSEEDVKRIINQPMDGEDQCDVRFRHITEITILTVQLIVEFAKRLPGFDKLLREDQIALLKACSSEVMMFRMARRYDVQTDSILFVNNQPYSRDSYNLAGMGETIEDLLHFCRTMYSMRVDNAEYALLTAIVIFSERPALIEGWKVEKIQEIYLEALRAYVDNRRKPKPGTIFAKLLSVLTELRTLGNQNSEMCFSLKLKNKKLPPFLAEIWDVDLKT | soluble
MIGRNRYAMLTVDTEALPKRAVQDHIKRLMWGEHDGGCAGIREMCAIGNECGVKQVFFVDMCGAYACLDQTLDVVRWLDQDGQDVQLHAHPEYLPEQFWKEHGFKYRPRFLNQYGIEKATFTIKYFGKLISDLTGKPLRAFRAGSFRWNADTLRALQEAGVSLSFNNSMNARLKGQCTYSEPTNHSYLWSNGVIEVPVTERKFFPLFGKEWWGRLQFPVGDWLGSPPWRVLRPYTVGADPSFLVVLLHSWSLLYWDKDGYAVYRDDKRIEDYRKLVRRLARDYDIITTADFLDLYACGKIKTTHTADLSLAEFKAVKKLEHHHHHH | not soluble
MIQIAIAGSSDEKPLEVAVRKTKEFIKALPSDVILMTGGRGGIMEVASEEFRKKGGIVVGILPYSDNGNRFNTVRVKTGLNPVERSGVLIESADVLVVLGGGVGTMIEALMAYNLGIPVIVITGTGYASDRLMELAKEGYFDHKRIVKVIFTDDPKEAAKLALKIGGERSEARDI | soluble
VVTLGYWDIRGLAHAIRLLLEYTETPYQERRYKAGPAPDFDPSDWTNEKEKLGLDFPNLPYLIDGDVKLTQSNAILRYIARKHNMCGETEVEKQRVDVLENHLMDLRMAFARLCYSPDFEKLKPAYLELLPGKLRQLSRFLGSRSWFVGDKLTFVDFLAYDVLDQQRMFVPDCPELQGNLSQFLQRFEALEKISAYMRSGRFMKAPIFWYTALWNNKKE | soluble
MGSDKIHHHHHHMDNLVDVFCDVDDFCAVFMPQWKKQCVTDGTRKRQRSSRMDMSEIMTIIILFHTSHHRDFKNYYTGYLARFFKSDFPHLLSYTRFLELMPTAVVPLCSYFSSIRSLPTGIEFVDSTSVKVCHNLRIPRHKTLSGLARRGKGTMGWFYGFKLHLIVNHKGGIVAAKITPANTHDTKPVSGMVVNAMDKLYADKGYISKALASELLEQGVTLVNNVRKNMKKKVLSLWDRAMLSRRFIIETINDQLKNISQIEHSRHRSVHGFMLNMIGGLIAYQLKESKPQLNITDVDFNAISVMA | not soluble
GAMAPGGEMTFSIPTHKCGLVIGRGGENVKAINQQTGAFVEISRQLPPNGDPNFKLFIIRGSPQQIDHAKQLIEEKIEGPLCPVGPGPGGPGPAGPMGPFNPGPFNQ | soluble
MCGISGEFRFDNQAADLAAVERITHHLAPRGPDAWGFHAQGPIALGHRRLKIMDLAEASGQPMIDPDLGLAMVFNGAIYNYPELRGELESLGYRFFSGGDTEVLLKGYHAWGADLLPRLNGMFAFAVWERDRQRLFLARDRLGIKPLYYSLDRSRLRFASSLPALLKGGDIASDLDPQALNFYLNFHAVVPAPHTLLEGVKKLPPATWMSVDLDGSCEQRTWWTLDYGPRPDERELTLDDWQERVLDGLREAVAIRQRAAREVGVLLSGGVDSSLLVGLLHEAGVDNLLTFSIGFEDAGGERGDEFQYSDLIAERYHTRHHRLRIGEHEVIEQLPAAFRAMSEPMVSHDCIAFYLLAREVSKHCKVVQSGQGADELFAGYHWYPKVDGADDAFAAYRAAFFDRDHEEYLATVGERFRVEDVAGRFVRDHFASPGAEAAVDKALRLDSTIMLVDDPVKRVDNMTMAWGLEARVPFLDYRLAELSARIPARFKLGDGGKQVLKGAARKVIPSEVIDRPKGYFPVPGLKHLQGRTREWVRELLLDPSQDRGLFQPAIFDRLLSDPDGDLTPLRG | not soluble
MAHHHHHHMLTTYNIIWKKEEEDDSLNIEKRNRLFHEHVKEQKNDILSPSEFDLLVNDIEDLLEEQQINETEKLYKVSKSPNEKFNKKYKLSITDLSAQLWCEQQLELVLTTGKRRETEAMRLGIERHEILEKADHLIVNVEVNTREESLGYRLLNSITLLGQLFQTKKAREVWVFGIIRNYVLRGIIDELRIEYDNVTKKEYLIISDTKTRKEKKEPSLAQKRTSAIQVQTYCLILQQLKNGKADFKKLFEIYECDPLFEFTAVDLVKYKNLENLSIELNKLFMKLPKIKEEMEIVYEHEGKEFSRNLIPYFYHSTLYTINILLDYWDGKRSSDVVENSDKWKCKFCDFVKNCVRCPLDY | not soluble
SMSEATPCIKAISPSEGWTTGGATVIIIGDNFFDGLQVVFGTMLVWSELITPHAIRVQTPPRHIPGVVEVTLSYKSKQFCKGAPGRFVYTALNEPTIDYGFQRLQKVIPRHPGDPERLPKEVLLKRAADLVEALYGMPHNNQEIILKRAADIAEALYSV | soluble
MGSDKIHHHHHHMTFGEKLLNAASTRGRLCVGIDPHESLLTSWGLPVNVDGLAEFSRACVEAFADTVALVKPQVAFYERFGSAGFAILEETIQTLRERGCLVVSDAKRGDIGSTMAGYASAWLDPASPLSSDAVTVSPYLGFHSLDPVFELAEQHGRGVFVLAATSNPEARELQDQQNADGVSISQQIVDQAAALNAPYMAQGKAGNIGVVIGATLSKPPRLSTLGGAILMPGVGAQGGTASDVDEIAGDMAHLAFPNVSRSILATGPDIAEMKNSVAKNAADFPGFPRS | not soluble
